Measurements published in the supplement of paper PMC7877785.
± gives the uncertainty stated by the source.

Assay: self-splicing fitness, log relative to wild type (ln ratio); higher = more splicing; Tetrahymena group I intron in knt gene, E. coli kanamycin selection, DiMSum; sequences stand for … in CUCUCU…GGAGGGAAAAGUUAUCAGGCAUGCACCUGGUAGCUAGUCUUUAAACCAAUAGAUUGCAUCGGUUUAAAAGGCAAGACCGUCAAAUUGCGGGAAAGGGGUCAACAGCCGUUCAGUACCAAGUCUCAGGGGAAACUUUGAGAUGGCCUUGCAAAGGGUAUGGUAAUAAGCUGACGGACAUGGUCCUAACCACGCAGCCAAGUCCUAAGUCAACAGAUCUUCUGUUGAUAUGGAUGCAGUUCACAGACUAAAUGUCGGUCGGGGAAGAUGUAUUCUUCUCAUAAGAUAUAGUCGGACCUCUCCUUAAUGGGAGCUAGCGGAUGAAGUGAUGCAACACUGGAGCCGCUGGGAACUAAUUUGUAUGCGAAAGUAUAUUGAUUAGUUUUGGAGUACUCGUGGUCG
How it was run: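 Six replicate transformations of E. coli BL21(DE3) with a pET-22b(+) library were grown overnight at 37°C or 30°C. The library randomised all eight P1ex-region intron nucleotides, the intron lying in the knt kanamycin-resistance gene, and plates were LB agar with or without 25 μg/mL kanamycin plus 100 μg/mL carbenicillin, 50 μM IPTG and 0.2% rhamnose. Pooled colonies were amplicon-sequenced on an Illumina HiSeq 2500, and fitness is the DiMSum error-weighted combination of wild-type-normalised replicate fold changes, kanamycin versus none.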

| Sequence | self-splicing fitness (ln) (30 °C) | self-splicing fitness (ln) (37 °C) |
| --- | --- | --- |
| GUCUAGCAAUAUUACGCUCU | -0.178 ± 0.13 | 1.05 ± 0.15 |
| CAACAGCAAUAUUACGAGCC | -3.76 ± 0.46 | -1.95 ± 0.29 |
| ACAUAGCAAUAUUACGUAUA | -3.09 ± 0.22 | -1.78 ± 0.21 |
| GAUAAGCAAUAUUACGCGGC | -3.27 ± 0.26 | -1.13 ± 0.2 |
| AUCAAGCAAUAUUACGGGGG | -3.79 ± 0.22 | -2.64 ± 0.15 |
| UAAUAGCAAUAUUACGAUCA | -0.744 ± 0.085 | 0.387 ± 0.1 |
| CGGUAGCAAUAUUACGACCA | -0.494 ± 0.17 | -0.426 ± 0.14 |
| GCGCAGCAAUAUUACGCUUC | -1.97 ± 0.24 | -0.419 ± 0.15 |
| ACUUAGCAAUAUUACGUCUA | -1.67 ± 0.16 | -1.83 ± 0.17 |
| CUGAAGCAAUAUUACGUCAC | -2.03 ± 0.11 | -2.73 ± 0.24 |
| CGCCAGCAAUAUUACGAGUU | -3.19 ± 0.15 | -3.16 ± 0.2 |
| AGACAGCAAUAUUACGGGUG | -3.07 ± 0.09 | -2.37 ± 0.1 |
| CGUCAGCAAUAUUACGAUAU | -2.13 ± 0.13 | -0.978 ± 0.13 |
| GUACAGCAAUAUUACGCCGU | -2.95 ± 0.21 | -1.06 ± 0.16 |
| AUGCAGCAAUAUUACGCAAG | -1.92 ± 0.091 | -1.72 ± 0.096 |
| CAUGAGCAAUAUUACGAACA |  | -2 ± 0.32 |
| CUUGAGCAAUAUUACGUCGG | -2.62 ± 0.11 | -1.04 ± 0.12 |
| GUGAAGCAAUAUUACGAGCG | -0.702 ± 0.087 | 0.396 ± 0.12 |
| GGACAGCAAUAUUACGUUUU | -1.06 ± 0.061 | -0.21 ± 0.073 |

| Sequence | self-splicing fitness (ln) (30 °C) | self-splicing fitness (ln) (37 °C) |
| --- | --- | --- |
| UUACAGCAAUAUUACGUACG | -0.291 ± 0.075 | 0.0876 ± 0.1 |
| AGUCAGCAAUAUUACGUCUU | -0.994 ± 0.095 | -0.306 ± 0.11 |
| UUGUAGCAAUAUUACGAGAA | -1.54 ± 0.3 | -1.42 ± 0.3 |
| UCUAAGCAAUAUUACGGGGG | -3.17 ± 0.22 | -0.678 ± 0.17 |
| UACGAGCAAUAUUACGACGG | -2.13 ± 0.15 | 0.000849 ± 0.18 |
| UGGAAGCAAUAUUACGGACU | -0.345 ± 0.11 | 0.284 ± 0.12 |
| GCGGAGCAAUAUUACGUGAU | -2.01 ± 0.47 | -1.42 ± 0.3 |
| ACCAAGCAAUAUUACGGCAA | -0.915 ± 0.08 | -0.348 ± 0.099 |
| GAGCAGCAAUAUUACGGGUG | -4.47 ± 0.22 | -2.17 ± 0.15 |
| GUUAAGCAAUAUUACGCUCA | -0.759 ± 0.1 | 0.0333 ± 0.13 |
| GCCAAGCAAUAUUACGGAAC | -1.73 ± 0.18 | -0.77 ± 0.18 |
| UACUAGCAAUAUUACGCUCG | -0.908 ± 0.13 | 0.0226 ± 0.15 |
| GAGUAGCAAUAUUACGAGGA |  | -1.81 ± 0.4 |
| AGGCAGCAAUAUUACGAGCC | -2 ± 0.14 | -1.4 ± 0.21 |
| AGGCAGCAAUAUUACGGCUC | -0.958 ± 0.17 | -0.371 ± 0.19 |
| CUUAAGCAAUAUUACGGUCG | 0.0331 ± 0.082 | 0.0238 ± 0.093 |
| GAUGAGCAAUAUUACGUGUC | -3.53 ± 0.31 |  |
| GUUUAGCAAUAUUACGUUCU | -1.41 ± 0.14 | -0.628 ± 0.17 |
| GCACAGCAAUAUUACGCACG | -2.06 ± 0.11 | -0.889 ± 0.1 |
